Target: ERK (extracellular-signal-regulated kinase; mitogen-activated protein kinase)
Assay: cell-based or functional assay

- ERK activity in the endoplasmic reticulum (phosphorylation of myelin basic protein), Cos7 cells with M1-RasV12: 60%
- decrease in transformed foci formation, NIH3T3 cells transfected with H-RasV12: 50%
B1: ERK decoy protein (ER localization signal, a c-Myc epitope tag, and the ERK polyligand of SEQ ID NO:1) (designed binder, part only; not given: ER signal and c-Myc tag, not shown: small tags and cut ends)
chain, part: MPKKKPTPIQLNPAAKGRKPRDLELPAAAATGPLAPGPFGAGAYSPTAPTYSPTAPKKKGGGGAPRAPGGRRAGAGRRPRAPAKLSFFFPS

From US20140099668A1
